Tested on: Caco-2 monolayers
Test: Transport of FITC-insulin across Caco-2 monolayer
Format: in vitro ADME, human
Procedure: Caco-2 cell line HTB-37 (American Type Culture Collection, Rockville, Md.), derived from human colon cells, was used for all experiments. Cells were maintained at 37° C. in DMEM supplemented with 25 IU/ml of penicillin, 25 mg/L of streptomycin, 250 μg/L of amphotericin B and 100 ml/L of fetal bovine serum. Monolayers were grown on BD Biocoat™ collagen filter supports (Discovery Labware, Bedford. Mass.). […] At the end of the growth period, the integrity of the cell monolayer was confirmed by transepithelial electrical resistance (TEER) measurements (Millicell-ERS voltohmmeter, Millipore. Billerica, Mass.). Only monolayers with TEER values over 300 Ω cm^2 were used for further experimentation. A solution of FITC-insulin in DMEM was placed on Caco-2 monolayers at various concentrations and samples were collected from the basolateral side and analyzed for fluorescence. To determine insulin transport from wafers, FITC-insulin-containing wafers were placed on Caco-2 monolayers. Samples were taken from the basolateral side and analyzed for insulin concentration.

insulin free in solution: solution of FITC-insulin in DMEM placed on Caco-2 monolayers
transport of insulin across Caco-2 monolayers: dose-dependent

From US20150174076A1, “MUCOADHESIVE DEVICES FOR DELIVERY OF ACTIVE AGENTS” (Entrega, Inc., priority 2012, published 2015)
